± gives the uncertainty stated by the source.
Assay: amyloid nucleation score (Sup35N fusion, yeast selection) (log enrichment); library NNK3; higher = more nucleation; inactive = no reads after selection
How it was run: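 After 24 hours of induction with 100 μM copper sulfate, psi-negative yeast expressing peptides of 20 random codons fused to Sup35N were grown for 7 days at 30°C on medium lacking adenine and uracil. Input and output plasmid inserts were sequenced with Illumina, and sequences with under 100 input reads were discarded. Scores for nucleation are the DiMSum log enrichment of output over input reads, centred on the mode score of non-aggregating sequences.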

DNKVFTLSNQA
amyloid nucleation score: inactive

AYNQSRILGVDLACRNELLC
amyloid nucleation score: inactive

APRLFINY
amyloid nucleation score: inactive

WVCTYLTRFGRITGALRMDV
amyloid nucleation score: inactive

CGSRLYRCETAMMVLRIRSG
amyloid nucleation score: inactive

CIRICNISFFL
amyloid nucleation score: 2.71 ± 0.075

PVYCDCSYVREGVTITITIH
amyloid nucleation score: inactive

FKVNGFSATILIFKQV
amyloid nucleation score: inactive

YTVILRVRGSMSAMQSMKFS
amyloid nucleation score: inactive

DPGHRGLTDFYSMFRL
amyloid nucleation score: inactive

NGYPHLIQHYLVNAG
amyloid nucleation score: inactive

MQWNWEGSLYMKIMSGMCHP
amyloid nucleation score: 1.02 ± 0.15

GCFSCVCLP
amyloid nucleation score: inactive

IDFIVLSSL
amyloid nucleation score: inactive

YRLVSLYFVLLFFGA
amyloid nucleation score: inactive

LAMAPITKSSKLMLAFMR
amyloid nucleation score: inactive

DGPTRLNLFNSLFVSLKRMY
amyloid nucleation score: 1.58 ± 0.12

CIVMG
amyloid nucleation score: inactive

ICPSNFWMFCSCYWSMLRNF
amyloid nucleation score: inactive

LINFEY
amyloid nucleation score: 1.16 ± 0.073

LCFARGLRCTSSVAVESGD
amyloid nucleation score: inactive

GVEIRYLQQ
amyloid nucleation score: inactive

CNWINLNIRSVRIYHPYSRF
amyloid nucleation score: 1.54 ± 0.072

RSCGVFHQRARVHCCIKSLP
amyloid nucleation score: inactive

CIQLVVT
amyloid nucleation score: inactive

WGRISNAHG
amyloid nucleation score: inactive

WYRLLYKVEYNFKGWSVFVR
amyloid nucleation score: inactive

KNCIGRFW
amyloid nucleation score: inactive

PNWEWIVYKMLGTFVHSWVM
amyloid nucleation score: inactive

HANCANRLNYLYVLYRAS
amyloid nucleation score: inactive

SGGKWFIFRCT
amyloid nucleation score: inactive

DQVAYRGKSVYSYKCKTRWG
amyloid nucleation score: inactive

SFSMIRE
amyloid nucleation score: inactive

LVSERKAKNSRSGSLAFFRR
amyloid nucleation score: inactive

TEYCIYFLEV
amyloid nucleation score: inactive

YGVESAYKCRNVYFLYWCML
amyloid nucleation score: 0.511 ± 0.13

RRLSM
amyloid nucleation score: inactive

FADYLMKPCRMCLLRDPVYS
amyloid nucleation score: inactive

SLYTARVFGVNYHFVTSKFF
amyloid nucleation score: inactive

AACYINMCIGIVYGYSFLSF
amyloid nucleation score: 1.13 ± 0.087

VNIGTIWETDKCMEIFCAAA
amyloid nucleation score: inactive

QQSWFTIYDVILYR
amyloid nucleation score: inactive

FLPQFDYVQIMVPCYCLEVV
amyloid nucleation score: inactive

AYCVFHSIYGV
amyloid nucleation score: inactive

YMTGNSSSWSTFGWDKRFGI
amyloid nucleation score: 1.03 ± 0.09

LLVQLLLCKLKSMRLCCTVF
amyloid nucleation score: inactive

FGFFWP
amyloid nucleation score: inactive

FNGRLVLHHRTVI
amyloid nucleation score: inactive

CSLTRFRWGYRTFEDNAPFH
amyloid nucleation score: 1.57 ± 0.075

YFTFCDCLGQLMTRGRGCSV
amyloid nucleation score: inactive

RFWMRKY
amyloid nucleation score: inactive

FGTLSQVHIH
amyloid nucleation score: inactive

LHEVLF
amyloid nucleation score: inactive

LCKFYRYRTLRHSEEKPCHH
amyloid nucleation score: inactive

FYFNRHRHHNVCRYLIGHPC
amyloid nucleation score: inactive

GFIVGLLARSTIFTTNYMLK
amyloid nucleation score: inactive

QGGNAISRYKWDCIR
amyloid nucleation score: inactive

WVYWRKSSILSTHRNIVKHW
amyloid nucleation score: inactive

CYNQRGCTIGILQFLPRPVW
amyloid nucleation score: inactive

FWNRWVVQVDSLSMRMSRVA
amyloid nucleation score: inactive

RMFVI
amyloid nucleation score: inactive

MVCFYHTGELPDWENR
amyloid nucleation score: inactive

YKTYKYERLCIFVLSQRESI
amyloid nucleation score: inactive

NVRWLFLAVSCQL
amyloid nucleation score: inactive

LIQPFFWCHCHDLAVDESGE
amyloid nucleation score: 1.66 ± 0.11

CFVDFYSWWLSITVQGLHNN
amyloid nucleation score: inactive

— the supplement of paper PMC12042874
